Starred links: 1 amine or outer side, 2 acyl side, 3 side chain; linkers in the order of their positions; H or OH if unused. Non-standard residues stand in square brackets, D forms with d. *: point of attachment. Trp(6-Me) = Cc1ccc2c(C[C@H](N)C(=O)O)c[nH]c2c1; Trp(7-Me) = Cc1cccc2c(C[C@H](N)C(=O)O)c[nH]c12; d(γGlu) = O=C(O)[C@@H](CCC(=O)[*:2])N[*:1]; C18 diacid = O=C(O)CCCCCCCCCCCCCCCCC(=O)*; γGlu = O=C(O)[C@H](CCC(=O)[*:2])N[*:1]; Palmitoyl = CCCCCCCCCCCCCCCC(=O)*; 3Pal = N[C@@H](Cc1cccnc1)C(=O)O; Nle = CCCC[C@H](N)C(=O)O; AEEA = NCCOCCOCC(=O)O; Aib = CC(C)(N)C(=O)O; Ava = NCCCCC(=O)O; Sar = CNCC(=O)O
Target: human GRP receptor (human, UniProt P30550 1-384)
Experiment: cell-based or functional assay

Sequence of human GRP receptor (P30550 whole entry): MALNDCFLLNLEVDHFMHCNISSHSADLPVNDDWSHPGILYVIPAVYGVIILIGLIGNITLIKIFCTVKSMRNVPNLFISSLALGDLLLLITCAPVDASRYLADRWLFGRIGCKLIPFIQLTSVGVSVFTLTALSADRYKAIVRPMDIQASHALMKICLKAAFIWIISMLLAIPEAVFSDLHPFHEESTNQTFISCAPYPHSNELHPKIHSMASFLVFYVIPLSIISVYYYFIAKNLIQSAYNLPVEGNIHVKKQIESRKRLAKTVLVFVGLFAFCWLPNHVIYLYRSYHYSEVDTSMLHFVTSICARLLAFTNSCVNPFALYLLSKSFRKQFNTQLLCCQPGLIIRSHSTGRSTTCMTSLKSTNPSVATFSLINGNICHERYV

| Binder | hIP1 GRPR EC50 [nM] |
| --- | --- |
| Palmitoyl-[d(γGlu)][AEEA][AEEA]GNHWAV[dA]HL[Nle][Aib]-NH2 (SMILES CCCCCCCCCCCCCCCC(=O)N[C@H](CCC(=O)NCCOCCOCC(=O)NCCOCCOCC(=O)NCC(=O)N[C@@H](CC(N)=O)C(=O)N[C@@H](Cc1c[nH]cn1)C(=O)N[C@@H](Cc1c[nH]c2ccccc12)C(=O)N[C@@H](C)C(=O)N[C@H](C(=O)N[C@H](C)C(=O)N[C@@H](Cc1c[nH]cn1)C(=O)N[C@@H](CC(C)C)C(=O)N[C@@H](CCCC)C(=O)NC(C)(C)C(N)=O)C(C)C)C(=O)O) [Peptide 75] | 18.2 |
| {C18 diacid}-[d(γGlu)][AEEA][AEEA]GNH[Trp(7-Me)]AV[dA]HL[Nle][Aib]-NH2 (SMILES CCCC[C@H](NC(=O)[C@H](CC(C)C)NC(=O)[C@H](Cc1c[nH]cn1)NC(=O)[C@@H](C)NC(=O)[C@@H](NC(=O)[C@H](C)NC(=O)[C@H](Cc1c[nH]c2c(C)cccc12)NC(=O)[C@H](Cc1c[nH]cn1)NC(=O)[C@H](CC(N)=O)NC(=O)CNC(=O)COCCOCCNC(=O)COCCOCCNC(=O)CC[C@@H](NC(=O)CCCCCCCCCCCCCCCCC(=O)O)C(=O)O)C(C)C)C(=O)NC(C)(C)C(N)=O) [Peptide 76] | 358 |
| {C18 diacid}-[d(γGlu)][AEEA][AEEA]GK(Ac)HWAV[dA]HL[Nle][Sar]-NH2 (SMILES CCCC[C@H](NC(=O)[C@H](CC(C)C)NC(=O)[C@H](Cc1c[nH]cn1)NC(=O)[C@@H](C)NC(=O)[C@@H](NC(=O)[C@H](C)NC(=O)[C@H](Cc1c[nH]c2ccccc12)NC(=O)[C@H](Cc1c[nH]cn1)NC(=O)[C@H](CCCCNC(C)=O)NC(=O)CNC(=O)COCCOCCNC(=O)COCCOCCNC(=O)CC[C@@H](NC(=O)CCCCCCCCCCCCCCCCC(=O)O)C(=O)O)C(C)C)C(=O)N(C)CC(N)=O) [Peptide 77] | 184 |
| EXXGNHWAVGHLM (Octadecanedioyl-D-γGlu-OEG-OEG-Gly-Asn-His-Trp-Ala-Val-Gly-His-Leu-Met-NH2) [Peptide 5] | 7.5 |
| {C18 diacid}-[d(γGlu)][AEEA][AEEA][AEEA][AEEA]GNH[Trp(7-Me)]AV[dA]HL-NH2 (SMILES Cc1cccc2c(C[C@H](NC(=O)[C@H](Cc3c[nH]cn3)NC(=O)[C@H](CC(N)=O)NC(=O)CNC(=O)COCCOCCNC(=O)COCCOCCNC(=O)COCCOCCNC(=O)COCCOCCNC(=O)CC[C@@H](NC(=O)CCCCCCCCCCCCCCCCC(=O)O)C(=O)O)C(=O)N[C@@H](C)C(=O)N[C@H](C(=O)N[C@H](C)C(=O)N[C@@H](Cc3c[nH]cn3)C(=O)N[C@@H](CC(C)C)C(N)=O)C(C)C)c[nH]c12) [Peptide 78] | 14 |
| {C18 diacid}-[d(γGlu)][AEEA][AEEA]GNH[Trp(6-Me)]AV[dA]HL[Nle]-NH2 (SMILES CCCC[C@H](NC(=O)[C@H](CC(C)C)NC(=O)[C@H](Cc1c[nH]cn1)NC(=O)[C@@H](C)NC(=O)[C@@H](NC(=O)[C@H](C)NC(=O)[C@H](Cc1c[nH]c2cc(C)ccc12)NC(=O)[C@H](Cc1c[nH]cn1)NC(=O)[C@H](CC(N)=O)NC(=O)CNC(=O)COCCOCCNC(=O)COCCOCCNC(=O)CC[C@@H](NC(=O)CCCCCCCCCCCCCCCCC(=O)O)C(=O)O)C(C)C)C(N)=O) [Peptide 79] | 529 |
| {C18 diacid}-[d(γGlu)][Ava]GNHWAV[dA]HL[Nle]-NH2 (SMILES CCCC[C@H](NC(=O)[C@H](CC(C)C)NC(=O)[C@H](Cc1c[nH]cn1)NC(=O)[C@@H](C)NC(=O)[C@@H](NC(=O)[C@H](C)NC(=O)[C@H](Cc1c[nH]c2ccccc12)NC(=O)[C@H](Cc1c[nH]cn1)NC(=O)[C@H](CC(N)=O)NC(=O)CNC(=O)CCCCNC(=O)CC[C@@H](NC(=O)CCCCCCCCCCCCCCCCC(=O)O)C(=O)O)C(C)C)C(N)=O) [Peptide 80] | 5.11 |
| {C18 diacid}-[d(γGlu)][AEEA][AEEA]GNH[Trp(7-Me)]AV[dA]HL[Nle][Sar]-NH2 (SMILES CCCC[C@H](NC(=O)[C@H](CC(C)C)NC(=O)[C@H](Cc1c[nH]cn1)NC(=O)[C@@H](C)NC(=O)[C@@H](NC(=O)[C@H](C)NC(=O)[C@H](Cc1c[nH]c2c(C)cccc12)NC(=O)[C@H](Cc1c[nH]cn1)NC(=O)[C@H](CC(N)=O)NC(=O)CNC(=O)COCCOCCNC(=O)COCCOCCNC(=O)CC[C@@H](NC(=O)CCCCCCCCCCCCCCCCC(=O)O)C(=O)O)C(C)C)C(=O)N(C)CC(N)=O) [Peptide 81] | 505 |
| {C18 diacid}-[d(γGlu)][AEEA][AEEA]GNHWAV[dA]HL[Nle][Aib]-NH2 (SMILES CCCC[C@H](NC(=O)[C@H](CC(C)C)NC(=O)[C@H](Cc1c[nH]cn1)NC(=O)[C@@H](C)NC(=O)[C@@H](NC(=O)[C@H](C)NC(=O)[C@H](Cc1c[nH]c2ccccc12)NC(=O)[C@H](Cc1c[nH]cn1)NC(=O)[C@H](CC(N)=O)NC(=O)CNC(=O)COCCOCCNC(=O)COCCOCCNC(=O)CC[C@@H](NC(=O)CCCCCCCCCCCCCCCCC(=O)O)C(=O)O)C(C)C)C(=O)NC(C)(C)C(N)=O) [Peptide 82] | 1230 |
| {C18 diacid}-[d(γGlu)][AEEA][AEEA][AEEA][AEEA]GN[3Pal]WAV[dA]HL[Nle]-NH2 (SMILES CCCC[C@H](NC(=O)[C@H](CC(C)C)NC(=O)[C@H](Cc1c[nH]cn1)NC(=O)[C@@H](C)NC(=O)[C@@H](NC(=O)[C@H](C)NC(=O)[C@H](Cc1c[nH]c2ccccc12)NC(=O)[C@H](Cc1cccnc1)NC(=O)[C@H](CC(N)=O)NC(=O)CNC(=O)COCCOCCNC(=O)COCCOCCNC(=O)COCCOCCNC(=O)COCCOCCNC(=O)CC[C@@H](NC(=O)CCCCCCCCCCCCCCCCC(=O)O)C(=O)O)C(C)C)C(N)=O) [Peptide 83] | 109 |
| {C18 diacid}-[d(γGlu)][AEEA][AEEA]GNH[Trp(6-Me)]AV[dA]HL[Nle][Sar]-NH2 (SMILES CCCC[C@H](NC(=O)[C@H](CC(C)C)NC(=O)[C@H](Cc1c[nH]cn1)NC(=O)[C@@H](C)NC(=O)[C@@H](NC(=O)[C@H](C)NC(=O)[C@H](Cc1c[nH]c2cc(C)ccc12)NC(=O)[C@H](Cc1c[nH]cn1)NC(=O)[C@H](CC(N)=O)NC(=O)CNC(=O)COCCOCCNC(=O)COCCOCCNC(=O)CC[C@@H](NC(=O)CCCCCCCCCCCCCCCCC(=O)O)C(=O)O)C(C)C)C(=O)N(C)CC(N)=O) [Peptide 84] | 2550 |
| {C18 diacid}-[γGlu][AEEA][AEEA]GNH[Trp(7-Me)]AV[dA]HL[Nle]-NH2 (SMILES CCCC[C@H](NC(=O)[C@H](CC(C)C)NC(=O)[C@H](Cc1c[nH]cn1)NC(=O)[C@@H](C)NC(=O)[C@@H](NC(=O)[C@H](C)NC(=O)[C@H](Cc1c[nH]c2c(C)cccc12)NC(=O)[C@H](Cc1c[nH]cn1)NC(=O)[C@H](CC(N)=O)NC(=O)CNC(=O)COCCOCCNC(=O)COCCOCCNC(=O)CC[C@H](NC(=O)CCCCCCCCCCCCCCCCC(=O)O)C(=O)O)C(C)C)C(N)=O) [Peptide 85] | 14.7 |

Source: patent publication US20260176319A1 (KALLYOPE, published 2026)
